Results: the supplement of paper PMC11246515
± gives the standard deviation of the averaged measurements.

Experiment: total protein half-life in vivo (active degradation + dilution); higher = more stable protein
[1] = E. coli NCM3722 delta-clpP delta-lon delta-hslV, growth: N-lim chemostat, doubling time 6 h
[2] = E. coli NCM3722 delta-clpP, growth: N-lim chemostat, doubling time 6 h
[3] = E. coli NCM3722 delta-hslV, growth: N-lim chemostat, doubling time 6 h
[4] = E. coli NCM3722 delta-lon, growth: N-lim chemostat, doubling time 6 h
[5] = E. coli NCM3722 delta-smpB, growth: N-lim chemostat, doubling time 6 h
[6] = wild type E. coli NCM3722, growth: C-lim chemostat, doubling time 3 h
[7] = wild type E. coli NCM3722, growth: C-lim chemostat, doubling time 6 h
[8] = wild type E. coli NCM3722, growth: C-lim chemostat, doubling time 12 h
[9] = wild type E. coli NCM3722, growth: N-lim chemostat, doubling time 6 h
[10] = wild type E. coli NCM3722, growth: N-lim chemostat, doubling time 12 h
[11] = wild type E. coli NCM3722, growth: P-lim chemostat, doubling time 6 h
[12] = wild type E. coli NCM3722, growth: P-lim chemostat, doubling time 12 h

## MTNQPTEIAIVGGGMVGGALALGLAQHGFAVTVIEHAEPAPFVADSQPDVRISAISAASVSLLKGLGVWDAVQAMRCHPYRRLETWEWETAHVVFDAAELKLPLLGYMVENTVLQQALWQALEAHPKVTLRVPGSLIALHRHDDLQELELKGGEVIRAKLVIGADGANSQVRQMAGIGVHAWQYAQSCMLISVQCENDPGDSTWQQFTPDGPRAFLPLFDNWASLVWYDSPARIRQLQNMNMAQLQAEIAKHFPSRLGYVTPLAAGAFPLTRRHALQYVQPGLALVGDAAHTIHPLAGQGVNLGYRDVDALIDVLVNARSYGEAWASYPVLKRYQMRRMADNFIMQSGMDLFYAGFSNNLPPLRFMRNLGLMAAERAGVLKRQALKYALGL
[1]
  total protein half-life in vivo: 4.44 ± 0.19 h
[2]
  total protein half-life in vivo: 3.97 ± 0.055 h
[3]
  total protein half-life in vivo: 4.09 ± 0.076 h
[4]
  total protein half-life in vivo: 3.34 ± 0.071 h
[5]
  total protein half-life in vivo: 3.93 ± 0.044 h
[6]
  total protein half-life in vivo: 2.59 ± 0.043 h
[7]
  total protein half-life in vivo: 4.352 ± 0.0069 h
[8]
  total protein half-life in vivo: 7.53 ± 0.7 h
[9]
  total protein half-life in vivo: 3.808 ± 0.035 h
[10]
  total protein half-life in vivo: 7.16 ± 0.92 h
[11]
  total protein half-life in vivo: 4.49 ± 0.16 h
[12]
  total protein half-life in vivo: 7.66 ± 0.16 h

## MATTQQSGFAPAASPLASTIVQTPDDAIVAGFTSIPSQGDNMPAYHARPKQSDGPLPVVIVVQEIFGVHEHIRDICRRLALEGYLAIAPELYFREGDPNDFADIPTLLSGLVAKVPDSQVLADLDHVASWASRNGGDVHRLMITGFCWGGRITWLYAAHNPQLKAAVAWYGKLTGDKSLNSPKQPVDIATDLNAPILGLYGGQDNSIPQESVETMRQALRAANAKAEIIVYPDAGHAFNADYRPSYHAASAEDGWQRMLEWFKQYGGKKSL
[1]
  total protein half-life in vivo: 4.8 ± 0.66 h
[2]
  total protein half-life in vivo: 3.82 ± 0.21 h
[3]
  total protein half-life in vivo: 4.01 ± 0.11 h
[4]
  total protein half-life in vivo: 4.18 ± 0.37 h
[5]
  total protein half-life in vivo: 3.92 ± 0.051 h
[6]
  total protein half-life in vivo: 2.59 ± 0.14 h
[7]
  total protein half-life in vivo: 4.52 ± 0.53 h
[8]
  total protein half-life in vivo: 8.52 ± 2.4 h
[9]
  total protein half-life in vivo: 3.85 ± 0.1 h
[10]
  total protein half-life in vivo: 5.35 ± 1.5 h
[11]
  total protein half-life in vivo: 4.06 ± 0.17 h
[12]
  total protein half-life in vivo: 8.35 ± 0.2 h

## MMMGEVQSLPSAGLHPALQDALTLALAARPQEKAPGRYELQGDNIFMNVMTFNTQSPVEKKAELHEQYIDIQLLLNGEERILFGMAGTARQCEEFHHEDDYQLCSTIDNEQAIILKPGMFAVFMPGEPHKPGCVVGEPGEIKKVVVKVKADLMA
[1]
  total protein half-life in vivo: 5.11 ± 0.56 h
[2]
  total protein half-life in vivo: 5.65 h
[3]
  total protein half-life in vivo: 4.7878 ± 0.0042 h
[4]
  total protein half-life in vivo: 5.28 h
[5]
  total protein half-life in vivo: 4.8 ± 0.44 h
[6]
  total protein half-life in vivo: 2.61 ± 0.37 h
[7]
  total protein half-life in vivo: 5.51 ± 0.72 h
[8]
  total protein half-life in vivo: 9.27 ± 2.2 h
[10]
  total protein half-life in vivo: 7.67 h
[11]
  total protein half-life in vivo: 4.2 ± 0.51 h
[12]
  total protein half-life in vivo: 10.3 ± 0.17 h

## MYQPVALFIGLRYMRGRAADRFGRFVSWLSTIGITLGVMALVTVLSVMNGFERELQNNILGLMPQAILSSEHGSLNPQQLPETAVKLDGVNRVAPITTGDVVLQSARSVAVGVMLGIDPAQKDPLTPYLVNVKQTDLEPGKYNVILGEQLASQLGVNRGDQIRVMVPSASQFTPMGRIPSQRLFNVIGTFAANSEVDGYEMLVNIEDASRLMRYPAGNITGWRLWLDEPLKVDSLSQQKLPEGSKWQDWRDRKGELFQAVRMEKNMMGLLLSLIVAVAAFNIITSLGLMVMEKQGEVAILQTQGLTPRQIMMVFMVQGASAGIIGAILGAALGALLASQLNNLMPIIGVLLDGAALPVAIEPLQVIVIALVAMAIALLSTLYPSWRAAATQPAEALRYE [P0ADC3]
[1]
  total protein half-life in vivo: 6.47 ± 0.46 h
[2]
  total protein half-life in vivo: 6.838 ± 0.034 h
[3]
  total protein half-life in vivo: 6.01 ± 0.34 h
[4]
  total protein half-life in vivo: 6.53 ± 1.3 h
[5]
  total protein half-life in vivo: 6.43 ± 0.65 h
[6]
  total protein half-life in vivo: 3.11 ± 0.068 h
[7]
  total protein half-life in vivo: 5.78 ± 1.3 h
[8]
  total protein half-life in vivo: 12.3 ± 0.59 h
[9]
  total protein half-life in vivo: 5.8 ± 0.06 h
[10]
  total protein half-life in vivo: 13.1 ± 1.6 h
[11]
  total protein half-life in vivo: 6.178 ± 0.04 h
[12]
  total protein half-life in vivo: 12.3 ± 1.1 h

## MHVLNILWVVFGIGLMLVLNLKFKINSMVALLVAALSVGMLAGMDLMSLLHTMKAGFGNTLGELAIIVVFGAVIGKLMVDSGAAHQIAHTLLARLGLRYVQLSVIIIGLIFGLAMFYEVAFIMLAPLVIVIAAEAKIPFLKLAIPAVAAATTAHSLFPPQPGPVALVNAYGADMGMVYIYGVLVTIPSVICAGLILPKFLGNLERPTPSFLKADQPVDMNNLPSFGVSILVPLIPAIIMISTTIANIWLVKDTPAWEVVNFIGSSPIAMFIAMVVAFVLFGTARGHDMQWVMNAFESAVKSIAMVILIIGAGGVLKQTIIDTGIGDTIGMLMSHGNISPYIMAWLITVLIRLATGQGVVSAMTAAGIISAAILDPATGQLVGVNPALLVLATAAGSNTLTHINDASFWLFKGYFDLSVKDTLKTWGLLELVNSVVGLIIVLIISMVA [P0AC94]
[6]
  total protein half-life in vivo: 2.92 ± 1.2 h
[7]
  total protein half-life in vivo: 6.04 ± 0.1 h
[8]
  total protein half-life in vivo: 13.5 h

## MQTEQQRAVTRLCIQCGLFLLQHGAESALVDELSSRLGRALGMDSVESSISSNAIVLTTIKDGQCLTSTRKNHDRGINMHVVTEVQHIVILAEHHLLDYKGVEKRFSQIQPLRYPRWLVALMVGLSCACFCKLNNGGWDGAVITFFASTTAMYIRQLLAQRHLHPQINFCLTAFAATTISGLLLQLPTFSNTPTIAMAASVLLLVPGFPLINAVADMFKGHINTGLARWAIASLLTLATCVGVVMALTIWGLRGWV [P0ADD5]
[8]
  total protein half-life in vivo: 15.1 h
[11]
  total protein half-life in vivo: 6.86 h

## MNTFSQVWVFSDTPSRLPELMNGAQALANQINTFVLNDADGAQAIQLGANHVWKLNGKPDDRMIEDYAGVMADTIRQHGADGLVLLPNTRRGKLLAAKLGYRLKAAVSNDASTVSVQDGKATVKHMVYGGLAIGEERIATPYAVLTISSGTFDAAQPDASRTGETHTVEWQAPAVAITRTATQARQSNSVDLDKARLVVSVGRGIGSKENIALAEQLCKAIGAELACSRPVAENEKWMEHERYVGISNLMLKPELYLAVGISGQIQHMVGANASQTIFAINKDKNAPIFQYADYGIVGDAVKILPALTAALAR
[6]
  total protein half-life in vivo: 2.87 ± 0.035 h
[7]
  total protein half-life in vivo: 5.9 h
[8]
  total protein half-life in vivo: 8.89 ± 0.4 h
